For three molecules, Km and Vmax results are on record in publication PMC2653193, “A Unique Dual Activity Amino Acid Hydroxylase in Toxoplasma gondii” (PLoS ONE, 2009).

One data set addresses T1, TgAaaH2 (Toxoplasma gondii, UniProt B2L7T2).
T1 construct: gene AaaH2; N-terminal 23 residues (predicted signal peptide) removed; N-terminal 6xHis tag (pET 45b) kept; E. coli BL21; full-length ORF 565 residues; primer text says begins at residue 23
T1 sequence (B2L7T2 23-565): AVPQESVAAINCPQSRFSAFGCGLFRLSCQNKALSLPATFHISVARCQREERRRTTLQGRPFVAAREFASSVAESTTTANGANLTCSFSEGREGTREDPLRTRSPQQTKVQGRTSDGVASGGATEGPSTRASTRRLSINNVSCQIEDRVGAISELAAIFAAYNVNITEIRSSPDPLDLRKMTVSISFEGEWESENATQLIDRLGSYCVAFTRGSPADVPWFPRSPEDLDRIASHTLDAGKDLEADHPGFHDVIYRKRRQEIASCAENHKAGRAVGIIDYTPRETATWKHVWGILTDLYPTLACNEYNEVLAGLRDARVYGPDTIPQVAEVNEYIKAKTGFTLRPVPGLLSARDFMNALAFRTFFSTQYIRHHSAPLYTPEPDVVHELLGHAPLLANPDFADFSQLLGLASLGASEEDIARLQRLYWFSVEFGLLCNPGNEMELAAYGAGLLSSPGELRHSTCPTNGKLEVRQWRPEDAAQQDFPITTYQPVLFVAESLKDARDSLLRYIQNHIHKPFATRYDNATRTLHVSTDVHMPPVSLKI
Put plainly: coupled dihydropteridine reductase assay, NADH oxidation at […] nm. The conditions noted are these: 50 µM amino acid (tyrosine in Figure 4B), 0-500 µM 6-MPH4, 500 µM NADH, 10 µM ferrous ammonium sulphate, 50 mM HEPES, pH 7.5, 32°C; range printed jointly for both enzymes, not assigned. The data set is classed as biochemical.

The target in the next data set is T2, TgAaaH1 (Toxoplasma gondii, UniProt B2L7T1).
T2 construct: gene AaaH1; N-terminal 23 residues (predicted signal peptide) removed; N-terminal 6xHis tag (pET 45b) kept; E. coli BL21; full-length ORF 565 residues; primer text says begins at residue 23
T2 sequence (B2L7T1 23-565): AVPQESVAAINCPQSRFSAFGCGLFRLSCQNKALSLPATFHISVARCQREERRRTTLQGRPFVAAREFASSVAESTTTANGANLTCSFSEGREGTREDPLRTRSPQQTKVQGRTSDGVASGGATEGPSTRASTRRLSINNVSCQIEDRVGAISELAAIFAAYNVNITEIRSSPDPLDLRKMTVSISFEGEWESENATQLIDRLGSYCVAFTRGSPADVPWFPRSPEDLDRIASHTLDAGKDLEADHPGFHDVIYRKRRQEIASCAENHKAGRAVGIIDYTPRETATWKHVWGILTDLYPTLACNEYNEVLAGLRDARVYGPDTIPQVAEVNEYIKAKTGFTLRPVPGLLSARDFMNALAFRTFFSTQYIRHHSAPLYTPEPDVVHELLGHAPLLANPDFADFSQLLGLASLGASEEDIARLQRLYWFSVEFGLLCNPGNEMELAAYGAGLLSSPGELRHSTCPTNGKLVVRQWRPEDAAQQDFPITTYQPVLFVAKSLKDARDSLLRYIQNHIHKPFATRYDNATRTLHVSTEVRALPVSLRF
The data set is described as above. The data set is classed as biochemical. Particulars: 50 µM amino acid (tyrosine in Figure 4B), 0-500 µM 6-MPH4, 500 µM NADH, 10 µM ferrous ammonium sulphate, 50 mM HEPES, pH 7.5, 32°C; range printed jointly for both enzymes, not assigned.

Substrate in data set [1]: N[C@@H](Cc1ccc(O)cc1)C(=O)O
The data set can be described thus: purified protein. It counts as biochemical, Toxoplasma gondii. Particulars: 500 µM 6-MPH4, 500 µM NADH, 10 µM ferrous ammonium sulphate, 50 mM HEPES, pH 7.5, 32°C, 0-200 µM tyrosine, substrate inhibition at high concentration.

Substrate in data set [2]: N[C@@H](Cc1ccccc1)C(=O)O
Put plainly: purified protein. It counts as biochemical, Toxoplasma gondii. Particulars: 500 µM 6-MPH4, 500 µM NADH, 10 µM ferrous ammonium sulphate, 50 mM HEPES, pH 7.5, 32°C, 0-200 µM phenylalanine, substrate inhibition at high concentration.

Take `CC1CNc2nc(N)[nH]c(=O)c2N1` (stereo not shown) [6-MPH4]: the Km on TgAaaH2 and at TgAaaH1 was 310 to 318 µM in each case.

B1: TgAaaH1 (Toxoplasma gondii) (protein)
chain: AVPQESVAAINCPQSRFSAFGCGLFRLSCQNKALSLPATFHISVARCQREERRRTTLQGRPFVAAREFASSVAESTTTANGANLTCSFSEGREGTREDPLRTRSPQQTKVQGRTSDGVASGGATEGPSTRASTRRLSINNVSCQIEDRVGAISELAAIFAAYNVNITEIRSSPDPLDLRKMTVSISFEGEWESENATQLIDRLGSYCVAFTRGSPADVPWFPRSPEDLDRIASHTLDAGKDLEADHPGFHDVIYRKRRQEIASCAENHKAGRAVGIIDYTPRETATWKHVWGILTDLYPTLACNEYNEVLAGLRDARVYGPDTIPQVAEVNEYIKAKTGFTLRPVPGLLSARDFMNALAFRTFFSTQYIRHHSAPLYTPEPDVVHELLGHAPLLANPDFADFSQLLGLASLGASEEDIARLQRLYWFSVEFGLLCNPGNEMELAAYGAGLLSSPGELRHSTCPTNGKLVVRQWRPEDAAQQDFPITTYQPVLFVAKSLKDARDSLLRYIQNHIHKPFATRYDNATRTLHVSTEVRALPVSLRF
notes: N-terminal 23 residues (predicted signal peptide) removed; N-terminal 6xHis tag (pET 45b) kept; E. coli BL21; full-length ORF 565 residues; primer text says begins at residue 23
B1: the Km was found to be 1.25 ± 0.69 µM in “purified protein [1]” and 2.45 ± 1.87 µM in “purified protein [2]”. The maximum rate (Vmax) in the data set “purified protein [1]” was determined as 0.137 ± 0.014 µmol/min/mg; in the data set “purified protein [2]”, 0.125 ± 0.015 µmol/min/mg.

B2: TgAaaH2 (Toxoplasma gondii) (protein)
chain: AVPQESVAAINCPQSRFSAFGCGLFRLSCQNKALSLPATFHISVARCQREERRRTTLQGRPFVAAREFASSVAESTTTANGANLTCSFSEGREGTREDPLRTRSPQQTKVQGRTSDGVASGGATEGPSTRASTRRLSINNVSCQIEDRVGAISELAAIFAAYNVNITEIRSSPDPLDLRKMTVSISFEGEWESENATQLIDRLGSYCVAFTRGSPADVPWFPRSPEDLDRIASHTLDAGKDLEADHPGFHDVIYRKRRQEIASCAENHKAGRAVGIIDYTPRETATWKHVWGILTDLYPTLACNEYNEVLAGLRDARVYGPDTIPQVAEVNEYIKAKTGFTLRPVPGLLSARDFMNALAFRTFFSTQYIRHHSAPLYTPEPDVVHELLGHAPLLANPDFADFSQLLGLASLGASEEDIARLQRLYWFSVEFGLLCNPGNEMELAAYGAGLLSSPGELRHSTCPTNGKLEVRQWRPEDAAQQDFPITTYQPVLFVAESLKDARDSLLRYIQNHIHKPFATRYDNATRTLHVSTDVHMPPVSLKI
notes: as for B1
Take B2: in “purified protein [1]”, the Km is 5.50 ± 3.26 µM and the Vmax was 0.123 ± 0.001 µmol/min/mg. Further, in the data set “purified protein [2]”, the Michaelis-Menten constant (Km) is 14.8 ± 6.4 µM and the maximum rate (Vmax) came to 0.145 ± 0.037 µmol/min/mg.

Usually Km stands for the concentration of substrate that gives half-maximal velocity. The term Vmax denotes the rate approached at saturating substrate.
